The values below come from PMC4872217, “Structural and functional insights into the E3 ligase, RNF126” (Scientific Reports, 2016).

B1: UBL4A_UBL (UBL domain of UBL4A, residues 1-74) (domain or fragment, UniProt P11441 1-74, looked up)
chain: MQLTVKALQGRECSLQVPEDELVSTLKQLVSEKLNVPVRQQRLLFKGKALADGKRLSDYSIGPNSKLNLVVKPL
notes: UBL4A (ubiquitin-like protein 4A), UBL domain, residues 1-74; source: E. coli Rosetta, purified
B2: BAG6_UBL (UBL domain of BAG6, residues 17-101) (domain or fragment, UniProt P46379 17-101, looked up)
chain: LEVLVKTLDSQTRTFIVGAQMNVKEFKEHIAASVSIPSEKQRLIYQGRVLQDDKKLQEYNVGGKVIHLVERAPPQTHLPSGASSG
notes: BAG6 (BCL2-associated athanogene 6), UBL domain, residues 17-101; The general purification protocol describes TEV cleavage; also called BAG6 UBL domain; source: E. coli BL21 (DE3), purified
B3: RNF126_NZF (RNF126 N-terminal zinc finger domain, residues 1-40) (domain or fragment, human, UniProt Q9BV68 1-40, looked up)
chain: MAEASPHPGRYFCHCCSVEIVPRLPDYICPRCESGFIEEL
notes: RNF126, human, residues 1-40 (N-terminal zinc finger); 15N- or 15N,13C-labelled where it was the observed protein in NMR; Cultures were supplemented with 10 uM ZnCl2; also called RNF126 1-40; not shown: thioredoxin A, N-terminal, cleaved; His6, N-terminal, cleaved
B4: RNF126_NZF H14A mutant (domain or fragment, human, UniProt Q9BV68 1-40, looked up)
chain: B3 chain with H14A
notes: RNF126, human, residues 1-40, with H14A; Made by PCR mutagenesis on pET28-GFP-RNF126 (1-40); in the native PAGE the mutants were GFP tagged; also called His14/Ala; source: E. coli BL21 (DE3), purified
B5: RNF126_NZF F36A mutant (domain or fragment, human, UniProt Q9BV68 1-40, looked up)
chain: B3 chain with F36A
notes: RNF126, human, residues 1-40, with F36A; Made by PCR mutagenesis on pET28-GFP-RNF126 (1-40); in the native PAGE the mutants were GFP tagged; also called Phe36/Ala; source: E. coli BL21 (DE3), purified

Test [1] concerns the target T1, RNF126 N-terminal region (residues 1-100) (human, UniProt Q9BV68 1-100).
T1 construct: RNF126, human, residues 1-100; also called RNF126 1-100; RNF126_NT (1-100); not shown: thioredoxin A, N-terminal, cleaved; His6, N-terminal, cleaved
Description: NMR titration; unlabelled protein titrated into 15N-labelled protein, 1H-15N HSQC chemical shift perturbation; 25 °C; 10 mM potassium phosphate pH 6.0, 100 mM NaCl, 250 μM TCEP; for RNF126_NZF into UBL4A_UBL fitted with DynaFit to a 1:1 model. The settings on record: both partners purified.

For test [2], the target named is B3. Described as above. As to conditions: both partners purified.
The target in test [3] is T2, SGTA_NT (N-terminal SGTA, residues 1-86) (human, UniProt O43765 1-86).
T2 construct: SGTA (small glutamine-rich tetratricopeptide repeat-containing protein alpha), human, residues 1-86; Only the 1-86 construct is described in the methods; not shown: thioredoxin A, N-terminal, cleaved; His6, N-terminal, cleaved
The description is as above. The settings on record: both partners purified.

Test [4] concerns the target UBL4A_UBL (UBL domain of UBL4A, residues 1-74) (UniProt P11441). The test is described as above.
The target in test [5] is B2. The test can be described thus: ITC; 500 μM RNF126_NZF (wild-type or mutant) injected into 50 μM BAG6_UBL in the cell; 25 °C; 10 mM potassium phosphate pH 6.0, 100 mM NaCl, 250 μM TCEP. As to conditions: both partners purified. For orientation: In ITC the heat of successive injections is recorded.

Substitutions are numbered along the chain they refer to. In names and notes the source's numbering stands.

T2 sequence (O43765 1-86): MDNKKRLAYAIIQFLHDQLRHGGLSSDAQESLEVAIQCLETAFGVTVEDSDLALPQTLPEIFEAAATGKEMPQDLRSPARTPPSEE

On to B1, for which, in test [1], the binding result is “binds”.
By stoichiometry N is commonly meant the number of molecules, sites or subunits per partner or assembly. As to B2, the binding result in test [1] and in test [3] was “binds” each time. The “stoichiometry N” value in test [2] was around 1 molar ratio.
What is called Kd is the concentration at which binding is half-saturated. On to B3, for which, in test [4], the Kd came to 16.6 µM. Moreover, in test [5], the affinity, expressed as Kd, was 0.4 ± 0.05 µM; the dH was -4.52 ± 0.04 kcal/mol; the “stoichiometry N” value was 1.
B4 showed a Kd in test [5] above 50 µM.
In test [5], B5 showed a Kd of 5 ± 0.3 µM.
